From patent publication US20120207721A1 (AARHUS UNIVERSITET, published 2012)

Molecular target: T1, soluble insulin receptor (IR) (R&D systems, 28-956) (UniProt P06213 28-956)
T1 construct: extracellular domain; Bought protein, coupled to a CM5 chip by NHS/EDC; It may be the same product as m8; also called soluble IR; immobilized soluble insulin receptor
Assay: SPR (Biacore), soluble IR coupled to CM5 chip, soluble SorCS1 as analyte

- Kd: ~5 nM
B1: soluble full-length extracellular part of SorCS1 (receptor)
chain: SGADQEKAERGEGASRSPRGVLRDGGQQEPGTRERDPDKATRFRMEELRLTSTTFALTGDSAHNQAMVHWSGHNSSVILILTKLYDYNLGSITESSLWRSTDYGTTYEKLNDKVGLKTILSYLYVCPTNKRKIMLLTDPEIESSLLISSDEGATYQKYRLNFYIQSLLFHPKQEDWILAYSQDQKLYSSAEFGRRWQLIQEGVVPNRFYWSVMGSNKEPDLVHLEARTVDGHSHYLTCRMQNCTEANRNQPFPGYIDPDSLIVQDHYVFVQLTSGGRPHYYVSYRRNAFAQMKLPKYALPKDMHVISTDENQVFAAVQEWNQNDTYNLYISDTRGVYFTLALENVQSSRGPEGNIMIDLYEVAGIKGMFLANKKIDNQVKTFITYNKGRDWRLLQAPDTDLRGDPVHCLLPYCSLHLHLKVSENPYTSGIIASKDTAPSIIVASGNIGSELSDTDISMFVSSDAGNTWRQIFEEEHSVLYLDQGGVLVAMKHTSLPIRHLWLSFDEGRSWSKYSFTSIPLFVDGVLGEPGEETLIMTVFGHFSHRSEWQLVKVDYKSIFDRRCAEEDYRPWQLHSQGEACIMGAKRIYKKRKSERKCMQGKYAGAMESEPCVCTEADFDCDYGYERHSNGQCLPAFWFNPSSLSKDCSLGQSYLNSTGYRKVVSNNCTDGVREQYTAKPQKCPGKAPRGLRIVTADGKLTAEQGHNVTLMVQLEEGDVQRTLIQVDFGDGIAVSYVNLSSMEDGIKHVYQNVGIFRVTVQVDNSLGSDSAVLYLHVTCPLEHVHLSLPFVTTKNKEVNATAVLWPSQVGTLTYVWWYGNNTEPLITLEGSISFRFTSEGMNTITVQVSAGNAILQDTKTIAVYEEFRSLRLSFSPNLDDYNPDIPEWRRDIGRVIKKSLVEATGVPGQHILVAVLPGLPTTAELFVLPYQDPAGENKRSTDDLEQISELLIHTLNQNSVHFELKPGVRVLVHAAHLTAAPLVDLTPTHSG
